The Kd is the concentration at which binding is half-saturated.

One assay addresses IL-8(1–66) monomer. Kind of assay: NMR titration.
For assay [1], the target named is IL-8(1–72) R26C trapped dimer. Kind of assay: NMR titration.

Consider LWTWFEDEFANATGMPPVEKDYSP [CXCR1 N-domain 24-mer], for which the Kd with IL-8(1–66) monomer amounted to 10 µM; in assay [1] it was 340 µM.

(Values after paper PMC2858980.)
